Data: patent US20100216715A1 (Novo Nordisk, published 2010)

T1: human beta-Klotho (human, UniProt Q86Z14 1-1044)
T1 sequence (looked up): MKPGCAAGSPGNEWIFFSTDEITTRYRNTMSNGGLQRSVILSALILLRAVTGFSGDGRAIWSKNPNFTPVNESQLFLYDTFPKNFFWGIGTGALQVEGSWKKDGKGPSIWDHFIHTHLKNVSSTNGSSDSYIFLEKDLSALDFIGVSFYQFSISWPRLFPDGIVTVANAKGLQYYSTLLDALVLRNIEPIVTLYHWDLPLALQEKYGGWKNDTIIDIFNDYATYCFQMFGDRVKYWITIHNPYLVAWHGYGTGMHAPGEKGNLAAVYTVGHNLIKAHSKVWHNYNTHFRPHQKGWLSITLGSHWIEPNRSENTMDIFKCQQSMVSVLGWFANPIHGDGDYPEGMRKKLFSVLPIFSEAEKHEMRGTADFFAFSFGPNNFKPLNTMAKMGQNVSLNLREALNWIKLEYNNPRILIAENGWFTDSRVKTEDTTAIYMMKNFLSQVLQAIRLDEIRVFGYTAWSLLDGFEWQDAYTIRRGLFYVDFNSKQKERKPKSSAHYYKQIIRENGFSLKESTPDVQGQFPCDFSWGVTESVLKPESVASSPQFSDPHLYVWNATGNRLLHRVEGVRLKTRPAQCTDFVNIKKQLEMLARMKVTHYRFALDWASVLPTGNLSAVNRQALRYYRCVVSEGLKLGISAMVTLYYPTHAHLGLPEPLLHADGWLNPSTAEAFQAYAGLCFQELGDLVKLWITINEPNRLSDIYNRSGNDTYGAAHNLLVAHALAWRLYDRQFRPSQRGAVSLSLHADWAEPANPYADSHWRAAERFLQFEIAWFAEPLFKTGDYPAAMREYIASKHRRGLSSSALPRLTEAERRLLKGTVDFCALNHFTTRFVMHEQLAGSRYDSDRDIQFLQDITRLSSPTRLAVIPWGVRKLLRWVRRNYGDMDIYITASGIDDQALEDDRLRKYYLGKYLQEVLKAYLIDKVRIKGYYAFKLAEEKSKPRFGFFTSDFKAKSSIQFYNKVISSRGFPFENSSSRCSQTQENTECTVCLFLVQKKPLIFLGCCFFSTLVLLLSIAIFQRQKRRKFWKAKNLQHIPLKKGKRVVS

B1: (K56R, K59R, K69R, K122R) EEAEAGGAGGSGGS-FGF21 (ligand)
chain: EEAEAGGAGGSGGSHPIPDSSPLLQFGGQVRQRYLYTDDAQQTEAHLEIREDGTVGGAADQSPESLLQLRALRPGVIQILGVRTSRFLCQRPDGALYGSLHFDPEACSFRELLLEDGYNVYQSEAHGLPLHLPGNRSPHRDPAPRGPARFLPLPGLPPALPEPPGILAPQPPDVGSSDPLSMVGPSQGRSPSYAS
B2: (K56R, K59R, K69R, K122R, L166F, S167G, M168L, 169aT, P171L, S172E, Q173A, G174V, Y179F, A180E, S181R) Gly-FGF21 (ligand)
chain: GHPIPDSSPLLQFGGQVRQRYLYTDDAQQTEAHLEIREDGTVGGAADQSPESLLQLRALRPGVIQILGVRTSRFLCQRPDGALYGSLHFDPEACSFRELLLEDGYNVYQSEAHGLPLHLPGNRSPHRDPAPRGPARFLPLPGLPPALPEPPGILAPQPPDVGSSDPFGLVTGLEAVRSPSFER
B3: (K56R, 59R, 69R, 122R, 166F, 167G, 168L, 169aT, 171L, 172E, 173A, 174V, 179F, 180E, 181R) Gly-FGF21 derivative of Example 49 (ligand)
chain: GHPIPDSSPLLQFGGQVRQRYLYTDDAQQTEAHLEIREDGTVGGAADQSPESLLQLRALRPGVIQILGVRTSRFLCQRPDGALYGSLHFDPEACSFRELLLEDGYNVYQSEAHGLPLHLPGNRSPHRDPAPRGPARFLPLPGLPPALPEPPGILAPQPPDVGSSDPFGLVTGLEAVRSPSFER
modifications: N-alpha-1-[2-(2-{2-[2-(2-{2-[(S)-4-carboxy-4-(17-carboxy-heptadecanoylamino)-butyrylamino]-ethoxy}-ethoxy)-acetylamino]-ethoxy}-ethoxy)-acetyl] on the N-terminal alpha amino group
B4: (-1G, 71C, 121Q, 166F, 167G, 168L, 169aT, 171L, 172E, 173A, 174V, 179F, 180E, 181K) FGF21 derivative of Example 16 (ligand)
chain: GHPIPDSSPLLQFGGQVRQRYLYTDDAQQTEAHLEIREDGTVGGAADQSPESLLQLKALKPGVIQILGVKTCRFLCQRPDGALYGSLHFDPEACSFRELLLEDGYNVYQSEAHGLPLHLPGQKSPHRDPAPRGPARFLPLPGLPPALPEPPGILAPQPPDVGSSDPFGLVTGLEAVRSPSFEK
modifications: S-71-({2-[2-(2-{2-[2-(2-{2-[(S)-4-carboxy-4-(17-carboxy-heptadecanoylamino)-butyrylamino]-ethoxy}-ethoxy)-acetylamino]-ethoxy}-ethoxy)-acetylamino]-ethylcarbamoyl}-methyl) on the thiol of Cys71
B5: (S71C, N121Q, L166F, S167G, M168L, 169aT, P171L, S172E, Q173A, G174V, Y179F, A180E, S181K) Gly-FGF21 (ligand)
chain: GHPIPDSSPLLQFGGQVRQRYLYTDDAQQTEAHLEIREDGTVGGAADQSPESLLQLKALKPGVIQILGVKTCRFLCQRPDGALYGSLHFDPEACSFRELLLEDGYNVYQSEAHGLPLHLPGQKSPHRDPAPRGPARFLPLPGLPPALPEPPGILAPQPPDVGSSDPFGLVTGLEAVRSPSFEK
B6: (S71C, L166F, S167G, M168L, 169aT, P171L, S172E, Q173A, G174V, Y179F, A180E, S181K) Gly-FGF21 (ligand)
chain: GHPIPDSSPLLQFGGQVRQRYLYTDDAQQTEAHLEIREDGTVGGAADQSPESLLQLKALKPGVIQILGVKTCRFLCQRPDGALYGSLHFDPEACSFRELLLEDGYNVYQSEAHGLPLHLPGNKSPHRDPAPRGPARFLPLPGLPPALPEPPGILAPQPPDVGSSDPFGLVTGLEAVRSPSFEK
B7: (S71C, D102E, N121Q, L166F, S167G, M168L, 169aT, P171L, S172E, Q173A, G174V, Y179F, A180E, S181K) Gly-FGF21 (ligand)
chain: GHPIPDSSPLLQFGGQVRQRYLYTDDAQQTEAHLEIREDGTVGGAADQSPESLLQLKALKPGVIQILGVKTCRFLCQRPDGALYGSLHFDPEACSFRELLLEEGYNVYQSEAHGLPLHLPGQKSPHRDPAPRGPARFLPLPGLPPALPEPPGILAPQPPDVGSSDPFGLVTGLEAVRSPSFEK
B8: (A26E, K56R, K59R, K69R, D102T, N121Q, K122R, Y179F, A180E, S181R) Gly-FGF21 (ligand)
chain: GHPIPDSSPLLQFGGQVRQRYLYTDDEQQTEAHLEIREDGTVGGAADQSPESLLQLRALRPGVIQILGVRTSRFLCQRPDGALYGSLHFDPEACSFRELLLETGYNVYQSEAHGLPLHLPGQRSPHRDPAPRGPARFLPLPGLPPALPEPPGILAPQPPDVGSSDPLSMVGPSQGRSPSFER
B9: (Q27E, K56R, K59R, K69R, D102T, N121Q, K122R, Y179F, A180E, S181R) Gly-FGF21 (ligand)
chain: GHPIPDSSPLLQFGGQVRQRYLYTDDAEQTEAHLEIREDGTVGGAADQSPESLLQLRALRPGVIQILGVRTSRFLCQRPDGALYGSLHFDPEACSFRELLLETGYNVYQSEAHGLPLHLPGQRSPHRDPAPRGPARFLPLPGLPPALPEPPGILAPQPPDVGSSDPLSMVGPSQGRSPSFER

biological target: T1, human beta-Klotho; experiment: cell-based or functional assay

Molecule	pERK-HEK293-Beta-klotho without HSA [EC50 (nM)] Median Value [nM]
(P143V, A145E, L146E, 148aD, P149L, P150R, I152H, 153aE, 153bS, 153cD, 153dM, A154F, P155S, Q156S, P158L, D159E, V160T, G161D, S163M, L166F, S167G, M168L, 169aT, P171L, S172E, Q173A, G174V, Y179F, A180E, S181K) Met-FGF21 (ligand)	9.5
B1	2
B2	3.3
B3	1.2
B4	1.4
B5	1.1
B6	1.4
B7	1.8
B8	44
B9	36
